For data set [1], the target named is T1, N-terminally truncated human AIMP2 splice variant lacking exon 2 (residues Ser34–Gln45 and Asp115–Lys320) (human, UniProt Q13155 34-45; Q13155 115-320).
T1 construct: human AIMP2, residues Asp115–Lys320 (exons 3 and 4, GST domain); joined directly to Gln45 as in the splice variant AIMP2-DX2 that lacks exon 2; also called AIMP2-DX2-S34; AIMP2GST; source: E. coli BL21-CodonPlus (DE3)-RIPL; culture pooled with those of the partners, co-purified (HiTrap Chelating HP, Superdex 200); not shown: His6, C-terminal, kept
T1 sequence (looked up): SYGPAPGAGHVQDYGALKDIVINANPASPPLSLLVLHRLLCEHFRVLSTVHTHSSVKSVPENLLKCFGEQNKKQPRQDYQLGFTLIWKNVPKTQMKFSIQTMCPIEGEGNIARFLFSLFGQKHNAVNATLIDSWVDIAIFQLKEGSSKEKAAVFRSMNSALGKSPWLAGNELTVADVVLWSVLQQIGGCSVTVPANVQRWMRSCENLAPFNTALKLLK
The data set is described as follows: SEC; separately transformed strains pooled in one culture, proteins met on cell disruption by sonication; His6 affinity (HiTrap Chelating HP), then HiLoad 16/600 Superdex 200 pg in 50 mM HEPES–NaOH pH 8.0, 200 mM NaCl, 5 mM DTT, 1% glycerol; SDS–PAGE of the highest peak. Conditions: partners not purified. (Size exclusion chromatography separates by hydrodynamic size, large species first.)

Data set [2] concerns the molecule itself. The data set is described as follows: crystal structure; DRS–AIMP2-DX2-S34–EPRSGST (DA2E) subcomplex, 3.6 Å, space group P6_(1), two subcomplexes in the asymmetric unit; crystals at 22°C from sodium/potassium phosphate, 0.1 M CAPS pH 10.5, lithium sulfate.

B1: C-terminally truncated human EPRSGST (Met1–Gln157) (domain or fragment, UniProt P07814 1-157, looked up)
chain: MATLSLTVNSGDPPLGALLAVEHVKDDVSISVEEGKENILHVSENVIFTDVNSILRYLARVATTAGLYGSNLMEHTEIDHWLEFSATKLSSCDSFTSTINELNHCLSLRTYLVGNSLSLADLCVWATLKGNAAWQEQLKQKKAPVHVKRWFGFLEAQ
notes: human glutamyl-prolyl-tRNA synthetase (EPRS), GST domain, residues Met1–Gln157; also called GST domain of glutamyl-prolyl-tRNA synthetase; source: E. coli BL21-CodonPlus (DE3)-RIPL; culture pooled with those of the partners, co-purified (HiTrap Chelating HP, Superdex 200); not shown: His6, C-terminal, kept
In the case of B1, the binding result in data set [1] is on record as “binds”.

B2: N-terminally truncated human aspartyl-tRNA synthetase (residues Ala21–Pro501) (enzyme, UniProt P14868 21-501, looked up)
chain: AEDYAKERYGISSMIQSQEKPDRVLVRVRDLTIQKADEVVWVRARVHTSRAKGKQCFLVLRQQQFNVQALVAVGDHASKQMVKFAANINKESIVDVEGVVRKVNQKIGSCTQQDVELHVQKIYVISLAEPRLPLQLDDAVRPEAEGEEEGRATVNQDTRLDNRVIDLRTSTSQAVFRLQSGICHLFRETLINKGFVEIQTPKIISAASEGGANVFTVSYFKNNAYLAQSPQLYKQMCICADFEKVFSIGPVFRAEDSNTHRHLTEFVGLDIEMAFNYHYHEVMEEIADTMVQIFKGLQERFQTEIQTVNKQFPCEPFKFLEPTLRLEYCEALAMLREAGVEMGDEDDLSTPNEKLLGHLVKEKYDTDFYILDKYPLAVRPFYTMPDPRNPKQSNSYDMFMRGEEILSGAQRIHDPQLLTERALHHGIDLEKIKAYIDSFRFGAPPHAGGGIGLERVTMLFLGLHNVRQTSMFPRDPKRLTP
notes: human aspartyl-tRNA synthetase (DRS), cytosolic, residues Ala21–Pro501; Homodimer in the crystal structure of the DA2E subcomplex; No removal of the His6 tag is described; also called DRS; source: E. coli Rosetta2 (DE3)pLysS; culture pooled with those of the partners, co-purified (HiTrap Chelating HP, Superdex 200); not shown: His6, N-terminal, kept
As to B2, the binding result in data set [2] is listed as “binds”.

The values above are taken from paper PMC6760448, “The DRS–AIMP2–EPRS subcomplex acts as a pivot in the multi-tRNA synthetase complex” (IUCrJ, 2019).
